Experimental findings from the DeepSol protein solubility set are described below.

The nature of the series: soluble on expression in E. coli; label from the status in PepcDB or PDB records.
In the case of “DYYFDSYDHYGIHEEMLQDTVRTLSYRNAIIQNKDLFKDKIVLDVGCGTGILSMFAAKHGAKHVIGVDMSSIIEMAKELVELNGFSDKITLLRGKLEDVHLPFPKVDIIISEWMGYFLLYESMMDTVLYARDHYLVEGGLIFPDKCSIHLAGLEDSQYKDEKLNYWQDVYGFDYSPFVPLVLHEPIVDTVERNNVNTTSDKLIEFDLNTVKISDLAFKSNFKLTAKRQDMINGIVTWFDIVFPAPKGKRPVEFSTGPHAPYTHWKQTIFYFPDDLDAETGDTIEGELVCSPNEKNNRDLNIKISYKFESNGIDGNSRSRKNEGSYLMH”, the “soluble on expression in E. coli” value is listed as “soluble”.
For the sequence “MAELACFCYPHLENDSYKFIPFNNLAIKAMLTAKVDKKDMDKFYDSIIYGIAPPPQFKKRYNTNDNSRGMNFETIMFTKVAMLICEALNSLKVTQANVSNVLSRVVSIRHLENLVIRKENPQDILFHSKDLLLKSTLIAIGQSKEIETTITAEGGEIVFQNAAFTMWKLTYLEHQLMPILDQNFIEYKVTLNEDKPISDVHVKELVAELRWQYNKFAVITHGKGHYRIVKYSSVANHADRVYATFKSNVKTGVNNDFNLLDQRIIWQNWYAFTSSMKQGNTLDVCKRLLFQKMKPEKNPFKGLSTDRKMDEVSQVGV”, the “soluble on expression in E. coli” value is listed as “soluble”.
Then “GDAFVGTWKLVSSENFDDYMKEVGVGFATRKDAGMAKPNMIISVNGDLVTIRSESTHKNTEISFKLGVEFDEITADDRKVKSIITLDGGALVQVQKWDGKSTTIKRKRDGDKLVVECVMKGVTSTRVYERA”, with “soluble”; and “MLRSKKMVLVGRKAPDFTAAAVLGNGEIVDNFNFAEFTKGKKAVVFFYPLDFTFVCPSELIAFDNRYEDFLAKGVEVIGVSIDSQFSHNAWRNTAVENGGIGQVKYPLVADVKHEICKAYDVEHPEAGVAFRGSFLIDEEGMVRHQVVNDLPLGRNIDEMLRMVDALNFHQTHGEVCPAQWEAGKAGMEASPKGVAAFLSQYSADLK”, with “not soluble”.
As for “MSLSQHIRKLDSDVSERLKSQACTVSLASAVREIVQNSVDAHATTIDVMIDLPNLSFAVYDDGIGLTRSDLNILATQNYTSKIRKMNDLVTMKTYGYRGDALYSISNVSNLFVCSKKKDYNSAWMRKFPSKSVMLSENTILPIDPFWKICPWSRTKSGTVVIVEDMLYNLPVRRRILKEEPPFKTFNTIKADMLQILVMHPMISLNVQYTDKLRINTEVLFRSKNITEGLTKHQQMSQVLRNVFGAIIPPDMLKKVSLKFNEYQIEGIISKMPVGLKDLQFIYINGRRYADSAFQGYVDSLFQAQDFGEKGMSLLKTKSVGKPYRSHPVFILDVRCPQTIDDLLQDPAKKIVKPSHIRTIEPLIVKTIRSFLTFQGYLTEGHHHHHH”, the “soluble on expression in E. coli” value was “not soluble”.
Take “MEAPTVLDVGCGDGARTLANLPPRSVGLDFSRAGLDLAAETVPDSRLVQGDMGSLPVTTDSVDAITAYHAVFHVQRDQHPEVYREFARVLRPGGTVLMTLPSGQFETVRRGWMGGSMFFSAPGRRATLDQLADAGFTETETVTATDPLGSDSEFVFATLADALEHHHHHH”: the “soluble on expression in E. coli” value is on record as “not soluble”.
With “MQPELTKTPANFPLSPLGAVVILGDIPNPELLAIPLAPTPSTMFGPRGACLVAETGALWVSDTGHHRLLGWRKLPTTDSQPADWVIGQPDFYHEGQNAKGTPGRTTVSVPTGICVCGGGLAIADAWNHRVLIWHKIPEDSNVPADLVLGQRNFSENEPNRGKQSPDANTMHWPYGVAYHQGKLFVADTGNRRLLIWQQLPTENGQPADIVLGQPDMISRNENGGGSPTAGSMRWCHDIAFWDDNLVVTDAGNNRVMIWQGIPTENNAPCAVVLGQKSFDLVEMNQGVYFPSAGSLSMPYGVGATEDWLMVADTANSRLLGWRKRESILLLQGAIADGIIGQNSFQSKSENRHFGLPTRDSLNWCYGVKVCGSTAVISDSGNNRVLLWRFLLEHHHHHH”, the “soluble on expression in E. coli” value is listed as “not soluble”.
Then “MRDIMSSPPITTLPMTSVKEAAKIMLENRVGSLIVVNERNTLLGILTKTDIIREVVAKGLDPESVRVGDIMTRNPYYVYTDDSVERAASLMGEHNIGHLPVLDPETEKPVGIVTKTDIVKLAPNYINVIYSLKQEIDRRERLKRIRK”, with “soluble”.
“MGGSHHHHHHGDDDDKMTKTFKTLDDFLGTHFIYTYDNGWEYEWYAKNDHTVDYRIHGGMVAGRWVTDQKADIVMLTEGIYKISWTEPTGTDVALDFMPNEKKLHGTIFFPKWVEEHPEITVTYQNEHIDLMEQSREKYATYPKLVVPEFANITYMGDAGQNNEDVISEAPYKEMPNDIRNGKYFDQNYHRLNK”: the “soluble on expression in E. coli” value is recorded as “soluble”.
Next, “MSLEFFMAKADNPAFEQGQSPRMRLPDSVPLLIVGGGIMGLWAAVKAERLGIGTLLVEAGRLGGGASGGLLGALMPHMPDRWSDKKQFQFDALVALEAEIAGLEAETGLSGGYRRCGRIIPLPKPHLRGIAERHERDAAENWRSGERRFQWHVGERPSVAGWVDDAAGEAGFVFDTLAARVSPRALIALLSAFLRKARHVQVAEGCRVVSLDADAGRAALSSGEEISFGHVVVANGHESFPLIRDALGLEAGVALGQAVKGQAALLDASADPAMPVVFLNGLYIVPHEDGTVAIGSTSEDCFSEPFSTDEKLEKLLVDACTVVPSLAGAPVLERWAGLRPKAVGRDPMVGAMAGTAKLVALSGGFKVSFGLAHFLADAALETVCGHTPVIPSGFRLQEHVSIAVPDFRKFLEHHHHHH”: “not soluble”; “MGSDKIHHHHHHMTPTYDTLIIGAGIAGASLGYRLAGQQRVLLVERESQPGYHSTGRSAAMFMEAYGTPQIQALTRASRAFYEAPPQGFCEHPLLEPRGCLYVASLEQRELLEQTFAQNLANGTEVTLLDRDAALALIPSLRGETLAGAVLEPGAMDLDVHALHQGFLRGYRTAGGELRCNAELIQACYLDDVWQVELADGSRLQARCLVNAAGAWADRVAEQCGVARIGLQPCRRSAFTFPGPAEQDFTRWPAVIGVDESFYFKPDAGQLLGSPANADPVEPQDAAPEEFDVALGIYNIEAMTTLAIRRPSHTWAGLRSFVADGDLVIGFDAHAPAFFWLAAQGGYGIQSAAGASRLAADLLLGQPLCASLVSQGVAPERLSPARFQQP”: “not soluble”.
For “MGSDKIHHHHHHMMEGKDDADLFADLGLSESIASIPSYTFIRDGLNRIFASSNNIWNVLIGTRLTPPKPLSDYDLVHIHNPVPLAGMVSVALHCRIKGIPYCVTTHGISKVPKIPEELGLSRGQRIVFNHGFLRAYKNVLSNATHLFALSEGDQDTITEWFSDQSVSVLPNGVDLNVSPEAPEVDTKVDLPDKPVLLFVGRIMASKGVDDLLEAFSLLEHDCKLIIVGPMRDEHFKDQIHTLSDDVEYRGYVEQAELDALYRRADLFVFPTRSDVFPLVTLEAMAAGTPVVSTTVGGLPEQIPDQVGRLVPPKEPKTFAAAVDGMLSNEQLRTEMGRAGKSLVEERYSWEAVAKAAVTEYYRIVN”, the “soluble on expression in E. coli” value was “not soluble”.
Then “MDALEIFKTLFSLVMRFSSYLPSNEEISDMKTTELYAFLYVALFGPKKMKEIAEFLSTTKSNVTNVVDSLEKRGLVVREMDPVDRRTYRVVLTEKGKEIFGEILSNFESLLKSVLEKFSEEDFKVVSEGFNRMVEALSREGR”, with “not soluble”; and “MDQNRGSDVGFAVPMLPVNYASATQKMSTLASTSSAGASSSTGSSNQQQQQAAAVIRRRRFSTAKIQPTRIKKVMQSDEDIGRMVQSVPVSIGRAMEHFAEKFLQAAAEATQFTSSKTLNPQHMKQAVLNTPHFSFLESVFKDVALPQQASELNTARTGMTLRGQQMLQEQQNSDFASAILANAQMQMMQMDQQALKQEDGTISPYLVDPQSPAAPLPLYLQGIPSNYPVVQELTATVPLSPSTPTTQLVNGMLGMLKYSKKDSEGQRLTGLKRASTDGDGEDRPKRGRPKKLKPEKCIDDDLYEEASRNIAKEDKDRELMPPPALPIGRP”, with “not soluble”; and “MSIRILPENEIKPSASAFEIPPLLFANPKNLYTRRAKRLRELAKNNPLRDYLEFAAHLVDIQLTLLETAPIGNYAEKLTAYLTENQGQKPLNKQQFARDEKWLELLLALIKQCKPYATGAILTTLEFLEKASYAELNNLADHLLNERYEQVSPDQSVFIWLALSLYWTQLAQQLPRHTQAEIGERHTCPVCGSAPITSVIHLDKTQGLRYLHCALCESEWNMTRAQCSNCDESGDLNYWSFDTVEAPIKAESCGDCHSYLKVLYQEKDPYVEPLADDLASLMLDIEMEQKGFVRSGLNPFLFSIE”, with “not soluble”.
Turning to “MPILFDCNAIASQVLKDEASALLESVGQFQKPNDLEAIVKLILKSQENGGKLVIVGVGKSALVAQKIVASMLSTGNRSAFLHPTEAMHGDLGMVEKNDVVLMISYGGESLELLNLVSHLKRLSHKIITFTKSPNSSLSKLGDYYLSLKIQKEACPINTAPTTSTTLTLALGDVLMACLMRAKNFSQEDFASFHPGGLLGKKLFVKVKDLLQTTNLPLIAPSTSFKDALIEMSEKRLGSAILVNEANELVGVLSDGDVRRALLKGVSLKSEVRHFATLKPKSFKNLDALLLEALEFLERHKIQLLVCVDDHNKVLGVLHLHQLLELGLKA”, the “soluble on expression in E. coli” value is “not soluble”.
Turning to “MRCVVYSIAKSSPLELVKIYQKQCRQFDCELELVDLFPKNTANAQKVSKKLAQKSYSLAFEPYLNPKAKNIALHPKAQRGDSFAFSKMLENHLNINFFIAGAYGFEENFLKDCQAWSLSEMTFSHEVAKIVLCEQIYRALSIIFKHPYHKLEHHHHHH”, the “soluble on expression in E. coli” value is recorded as “not soluble”.
As for “MASIKSYKLKNGQERWEYFVSNGRSNGTGRQQKIHKRGFRSHKEALKAAKIIEGQIASEEFVKENPQKMTISKFMNIWINEYKNNVKEGSRIVYRDAIRMYIDPYIGNYQLNKYKPADHQKFINSLFTNKELGKSKNGLSYNTVKIVNAALSNAFKKAQKLGYIKSNPTYFVEFPLDKVKEKTNKEKKLEFYTLEQENLFLDTARNFDDFMWYVFFLIIFDLGLRKGEVMALRWFNFDFRDNILTFDKQRLYRKEQPGQVILDDVKTDAGKRSLKMTNRVRNSVLELYSINYDLTSNVLPMTNSNQDFLFINHRGKNVGLPIRQRSVDTAWHRIIQKANLPKIRIHDGRHTNAARLRQAGVPLEDIKDMLGHKNVKTTEIYAHVSPEVKERAVNKLELYQMQHKKSGN”, the “soluble on expression in E. coli” value was “not soluble”.
For “MAFSSRKEISSRNSERSTDDTACLRMSENGVALWCEKNVFVQENQPFVDYLPYFCSKVIGTLSIGKNLCGSFSGEKQSIPDKTIMVNIKI”, the “soluble on expression in E. coli” value was “not soluble”.
Next, “SLLSPAAERSQGSLLSVIMEILKDQSHRELFGLELGSGTGQHVVHFAQEMPFVTWLPSDTKEESRNSIRAYIEATKAKTVLEPVHLDASEPWDKWAGLPQNSCDIILAINLLQYTPFSTAEGVFKGSGQILKQNGLLMTYGPYAINGTITPICNEQLDETLRQMNPEWGLPDIDVLRQLAFSNGMRMERMIEMPESNKCLVFRKL”: “soluble”.
Take “MNYILKQMLGGRQVIATHTCIGMDTDAFQNGRNLVTDTLEIYTGDLRKTLDTLSSIFHPSSFPLKSLRILDNADFKHPIIQGSLLLVVPNTENMHLISNKRVHARYFYYKDDVDFIINKWLDDGKEAGTHFSIGMFLTEDHVKEKYEEFLSTFEERVSWRTNYPPCFAINIDNFSEIVIGYEEFQQISTPEWRLNFKVQKREEFV”: the “soluble on expression in E. coli” value is “not soluble”.
For “MTKTEGKTASAAVKDILLSNPDGLREVIRTVMQEVLEAEMDEALGAAKGERTPERLGYRSGHYGRTLITRVGKLELRVPQDRSGHFSTELFERYQRSERALVATLAEMYVQGVSTRKVKAITEELCGHAFSASSISAINKRLDESLKAFAERSLEEPFAYLILDARYEKVREAGVVMSQAVLIAVGIDWDGRRQILSVEMAGRESRSAWKDFLVRLKGRGLKGVELVVSDDHAGLVAAIGEVIPEAAWQRCYVHFLRNALDHLPRKHGDDCLQELRWLYDRRDLDEAKADLAAWLGKWSVRYPRLTSWVEETIEQTLTFFRLPRQHHKHLKSTNMLERLNEEIRRRTYVVRIFPNTESCLRLVRALAVETHENWMEANRYINMDDLREHKKLALRQAA”, the “soluble on expression in E. coli” value is recorded as “not soluble”.
